Common to all, as to assay: ELISA
In general terms: In an ELISA, binding on a coated surface is turned into a signal by an enzyme label.

Assay [1] deals with T1, Biotinylated human α2-antiplasmin (Asn-α2-AP form) (human, UniProt P08697 40-491, biotin (EZ-Link Sulfo-NHS-Biotinylation Kit), sites not stated).
T1 sequence (looked up): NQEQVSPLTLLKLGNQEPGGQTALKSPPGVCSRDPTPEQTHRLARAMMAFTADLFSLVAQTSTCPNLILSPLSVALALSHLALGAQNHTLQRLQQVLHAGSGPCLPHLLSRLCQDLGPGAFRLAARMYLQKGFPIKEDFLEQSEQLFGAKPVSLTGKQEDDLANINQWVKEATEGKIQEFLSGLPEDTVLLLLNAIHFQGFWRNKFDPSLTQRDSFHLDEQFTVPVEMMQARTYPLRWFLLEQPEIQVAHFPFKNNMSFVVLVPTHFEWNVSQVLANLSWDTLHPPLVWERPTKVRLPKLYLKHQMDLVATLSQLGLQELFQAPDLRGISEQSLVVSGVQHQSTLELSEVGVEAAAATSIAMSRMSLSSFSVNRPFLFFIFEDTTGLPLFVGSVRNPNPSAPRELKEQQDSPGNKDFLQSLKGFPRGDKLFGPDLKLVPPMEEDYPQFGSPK

For assay [2], the target named is T1, Biotinylated human α2-antiplasmin …. This is another data set of the same source.
For assay [3] the target is unchanged. This is another data set of the same source.
The target is the same in assay [4]. This is another data set of the same source.

Like-named read-outs stand apart in the source and are kept apart here.

B1: Fibrin-derived D-D fragment (domain or fragment)
chain 1: VSEDLRSRIEVLKRKVIEKVQHIQLLQKNVRAQLVDMKRLEVDIDIKIRSCRGSCSRALAREVDLKDYEDQQKQLEQVIAKDLLPSR
chain 2: DNENVVNEYSSELEKHQLYIDETVNSNIPTNLRVLRSILENLRSKIQKLESDVSAQMEYCRTPCTVSCNIPVVSGKECEEIIRKGGETSEMYLIQPDSSVKPYRVYCDMNTENGGWTVIQNRQDGSVDFGRKWDPYKQGFGNVATNTDGKNYCGLPGEYWLGNDKISQLTRMGPTELLIEMEDWKGDKVKAHYGGFTVQNEANKYQISVNKYRGTAGNALMDGASQLMGENRTMTIHNGMFFSTYDRDNDGWLTSDPRKQCSKEDGGGWWYNRCHAANPNGRYYWGGQYTWDMAKHGTDDGVVWMNWKGSWYSMRKMSMKIRPFFPQQ
chain 3: KMLEEIMKYEASILTHDSSIRYLQEIYNSNNQKIVNLKEKVAQLEAQCQEPCKDTVQIHDITGKDCQDIANKGAKQSGLYFIKPLKANQQFLVYCEIDGSGNGWTVFQKRLDGSVDFKKNWIQYKEGFGHLSPTGTTEFWLGNEKIHLISTQSAIPYALRVELEDWNGRTSTADYAMFKVGPEADKYRLTYAYFAGGDAGDAFDGFDFGDDPSDKFFTSHNGMQFSTWDNDNDKFEGNCAEQDGSGWWMNKCHAGHLNGVYYQGGTYSKASTPNGYDNGIIWATWKTRWYSMKKTTMKIIPFNRLTIGEGQQHHLGGAK
modifications: covalent γ-γ cross-linking between the D regions
The term Kd denotes the concentration at which binding is half-saturated. Take B1: the Kd in assay [1] is 98 nM; in assay [2], 105 nM; in assay [3] it was 5.5 nM; in assay [4], 94 nM.

Values taken from PMC2932838 (Biochemistry, 2010).
